Data as given in patent US20230192860A1 (Bristol-Myers Squibb, published 2023).

Legend:
hVISTA-ECD 6-His tag [1] = target: T1, hVISTA-ECD 6-His tag (human, UniProt Q9H7M9 33-193); assay: SPR 37 C, Ab on Protein A, pH 6.0
T1 construct: also called monovalent hVISTA-ECD; human VISTA

hVISTA-ECD 6-His tag [2] = target: T1, hVISTA-ECD 6-His tag; assay: SPR 37 C, Ab on Protein A, pH 7.4

T1 sequence (Q9H7M9 other isoform, or with tags, fused parts or gaps limits assumed): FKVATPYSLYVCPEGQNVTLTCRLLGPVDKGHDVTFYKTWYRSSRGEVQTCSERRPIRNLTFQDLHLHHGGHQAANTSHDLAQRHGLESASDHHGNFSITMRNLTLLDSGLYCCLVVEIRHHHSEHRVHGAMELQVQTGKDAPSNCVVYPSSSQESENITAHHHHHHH

Row | Binder | Kd (hVISTA-ECD 6-His tag [1]) [nM] | koff (hVISTA-ECD 6-His tag [1]) [s⁻¹] | kon (hVISTA-ECD 6-His tag [1]) [M⁻¹ s⁻¹] | Kd (hVISTA-ECD 6-His tag [2]) [nM] | koff (hVISTA-ECD 6-His tag [2]) [s⁻¹] | kon (hVISTA-ECD 6-His tag [2]) [M⁻¹ s⁻¹]
1 | P1-077841 (P1-068744 E100S) (antibody, V domains shown) VH: QVQLVESGGGVVQPGRSLRLSCAASGFTFSEYAMHWVRQAPGKGLEWVAHIWYDGSNKYEADSVKGRFTISRDNSKNTLYLQMNSLRAEDTAVYYCARDSGFYSSYYFDEWGQGTLVTVSS VL: EIVLTQSPATLSLSPGERATLSCRASQSVSSSYLAWYQQKPGQAPRLLIYDASNRATGIPARFSGSGSGTDFTLTISSLEPEDFATYYCQQYNSYPYTFGQGTKLEIK | 200 | 0.11 | 520000 | 910 | 0.3 | 330000
2 | P1-077845 (P1-068744 E31S H50I) (antibody, V domains shown) VH: QVQLVESGGGVVQPGRSLRLSCAASGFTFSSYAMHWVRQAPGKGLEWVAIIWYDGSNKYEADSVKGRFTISRDNSKNTLYLQMNSLRAEDTAVYYCARDSGFYESYYFDEWGQGTLVTVSS VL: EIVLTQSPATLSLSPGERATLSCRASQSVSSSYLAWYQQKPGQAPRLLIYDASNRATGIPARFSGSGSGTDFTLTISSLEPEDFATYYCQQYNSYPYTFGQGTKLEIK | 1.7 | 0.002 | 1.2e+06 | 14 | 0.0038 | 280000
3 | P1-077843 (P1-068744 E102Y) (antibody, V domains shown) VH: QVQLVESGGGVVQPGRSLRLSCAASGFTFSEYAMHWVRQAPGKGLEWVAHIWYDGSNKYEADSVKGRFTISRDNSKNTLYLQMNSLRAEDTAVYYCARDSGFYESYYFDYWGQGTLVTVSS VL: EIVLTQSPATLSLSPGERATLSCRASQSVSSSYLAWYQQKPGQAPRLLIYDASNRATGIPARFSGSGSGTDFTLTISSLEPEDFATYYCQQYNSYPYTFGQGTKLEIK | 33 | 0.0048 | 150000 | 2000 | 0.034 | 18000
4 | P1-077847 (P1-068744 H50I E59Y) (antibody, V domains shown) VH: QVQLVESGGGVVQPGRSLRLSCAASGFTFSEYAMHWVRQAPGKGLEWVAIIWYDGSNKYYADSVKGRFTISRDNSKNTLYLQMNSLRAEDTAVYYCARDSGFYESYYFDEWGQGTLVTVSS VL: EIVLTQSPATLSLSPGERATLSCRASQSVSSSYLAWYQQKPGQAPRLLIYDASNRATGIPARFSGSGSGTDFTLTISSLEPEDFATYYCQQYNSYPYTFGQGTKLEIK | 2.7 | 0.0032 | 1.2e+06 | 29 | 0.0035 | 120000

Continued, values first:

Row | Kd (hVISTA-ECD 6-His tag [1]) [nM] | koff (hVISTA-ECD 6-His tag [1]) [s⁻¹] | kon (hVISTA-ECD 6-His tag [1]) [M⁻¹ s⁻¹] | Kd (hVISTA-ECD 6-His tag [2]) [nM] | koff (hVISTA-ECD 6-His tag [2]) [s⁻¹] | kon (hVISTA-ECD 6-His tag [2]) [M⁻¹ s⁻¹] | Binder
5 | 220 | 0.085 | 380000 | 2200 | 0.3 | 150000 | P1-077851 (P1-068744 E100S E102Y) (antibody, V domains shown) VH: QVQLVESGGGVVQPGRSLRLSCAASGFTFSEYAMHWVRQAPGKGLEWVAHIWYDGSNKYEADSVKGRFTISRDNSKNTLYLQMNSLRAEDTAVYYCARDSGFYSSYYFDYWGQGTLVTVSS VL: EIVLTQSPATLSLSPGERATLSCRASQSVSSSYLAWYQQKPGQAPRLLIYDASNRATGIPARFSGSGSGTDFTLTISSLEPEDFATYYCQQYNSYPYTFGQGTKLEIK
6 | 220 | 0.11 | 500000 | 6600 | 0.35 | 53000 | P1-077849 (P1-068744 E59Y E100S) (antibody, V domains shown) VH: QVQLVESGGGVVQPGRSLRLSCAASGFTFSEYAMHWVRQAPGKGLEWVAHIWYDGSNKYYADSVKGRFTISRDNSKNTLYLQMNSLRAEDTAVYYCARDSGFYSSYYFDEWGQGTLVTVSS VL: EIVLTQSPATLSLSPGERATLSCRASQSVSSSYLAWYQQKPGQAPRLLIYDASNRATGIPARFSGSGSGTDFTLTISSLEPEDFATYYCQQYNSYPYTFGQGTKLEIK
7 | 18 | 0.0019 | 110000 | 1200 | 0.024 | 21000 | P1-077853 (P1-068744 E31S E102Y) (antibody, V domains shown) VH: QVQLVESGGGVVQPGRSLRLSCAASGFTFSSYAMHWVRQAPGKGLEWVAHIWYDGSNKYEADSVKGRFTISRDNSKNTLYLQMNSLRAEDTAVYYCARDSGFYESYYFDYWGQGTLVTVSS VL: EIVLTQSPATLSLSPGERATLSCRASQSVSSSYLAWYQQKPGQAPRLLIYDASNRATGIPARFSGSGSGTDFTLTISSLEPEDFATYYCQQYNSYPYTFGQGTKLEIK
